Data on one molecule can be found in patent US20200377579A1 (Biogen, published 2020).

Experiment [1] has as its target T1, aggregated α-synuclein (human, UniProt P37840 1-140). Put plainly: in vitro binding, method not stated; estimated from binding constants.
Experiment [2] has as its target T1, aggregated α-synuclein. Briefly: in vitro binding, method not stated; same EC50 in mass units.

B1: BIIB054 (antibody, human IgG1, lambda, V domains shown)
VH: EVQLVESGGGLVEPGGSLRLSCAVSGFDFEKAWMSWVRQAPGQGLQWVARIKSTADGGTTSYAAPVEGRFIISRDDSRNMLYLQMNSLKTEDTAVYYCTSAHWGQGTLVTVSS
VL: SYELTQPPSVSVSPGQTARITCSGEALPMQFAHWYQQRPGKAPVIVVYKDSERPSGVPERFSGSSSGTTATLTITGVQAEDEADYYCQSPDSTNTYEVFGGGTKLTVLS
notes: Fully human IgG1/lambda monoclonal antibody; also called anti-α-synuclein antibody
As for B1, the EC50 with aggregated α-synuclein [1] is approximately 0.25 nM; in the experiment with aggregated α-synuclein [2], approximately 0.0375 mg/L.
